Data: article PMC3751566
Substitutions are numbered along the chain they refer to.

B1: Munc18c (endogenous) [mouse (endogenous in 3T3-L1 and PTP1B KO adipocytes)] / Protein-tyrosine phosphatase 1B substrate-trapping [not stated] (parent)
chain 1: MAPPVSERGLKSVVWRKIKTAVFDDCRKEGEWKIMLLDEFTTKLLSSCCKMTDLLEEGITVIENIYKNREPVRQMKALYFISPTPKSVDCFLRDFGSKSEKKYKAAYIYFTDFCPDSLFNKIKASCSKSIRRCKEINISFIPQESQVYTLDVPDAFYYCYSPDPSNASRKEVVMEAMAEQIVTVCATLDENPGVRYKSKPLDNASKLAQLVEKKLEDYYKIDEKGLIKGKTQSQLLIIDRGFDPVSTVLHELTFQAMAYDLLPIENDTYKYKTDGKEKEAVLEEDDDLWVRVRHRHIAVVLEEIPKLMKEISSTKKATEGKTSLSALTQLMKKMPHFRKQISKQVVHLNLAEDCMNKFKLNIEKLCKTEQDLALGTDAEGQRVKDSMLVLLPVLLNKNHDNCDKIRAVLLYIFGINGTTEENLDRLIHNVKIEDDSDMIRNWSHLGVPIVPPSQQAKPLRKDRSAEETFQLSRWTPFIKDIMEDAIDNRLDSKEWPYCSRCPAVWNGSGAVSARQKPRTNYLELDRKNGSRLIIFVIGGITYSEMRCAYEVSQAHKSCEVIIGSTHILTPRKLLDDIKMLNKSKDKVSFKDE
chain 2: MEMEKEFEQIDKSGSWAAIYQDIRHEASDFPCRVAKLPKNKNRNRYRDVSPFDHSRIKLHQEDNDYINASLIKMEEAQRSYILTQGPLPNTCGHFWEMVWEQKSRGVVMLNRVMEKGSLKCAQYWPQKEEKEMIFEDTNLKLTLISEDIKSYYTVRQLELENLTTQETREILHFHYTTWPAFGVPESPASFLNFLFKVRESGSLSPEHGPVVVHCSAGIGRSGTFCLADTCLLLMDKRKDPSSVDIKKVLLEMRKFRMGLIQTADQLRFSYLAVIEGAKFIMGDSSVQDQWKELSHEDLEPPPEHIPPPPRPPKRILEPHNGKCREFFPNHQWVKEETQEDKDCPIKEEKGSPLNAAPYGIESMSQDTEVRSRVVGGSLRGAQAASPAKGEPSLPEKDEDHALSYWKPFLVNMCVATVLTAGAYLCYRFLFNSNT
B2: Protein-tyrosine phosphatase 1B wild type [not stated] / Munc18c (endogenous) [mouse (endogenous in 3T3-L1 and PTP1B KO adipocytes)] (parent)
chain 1: B1 chain 2 with A181D
chain 2: B1 chain 1

Variants of: B1
Assay: co-immunoprecipitation (IP PTP1B with FG6, IB Munc18c), band quantification
Details: with Protein-tyrosine phosphatase 1B substrate-trapping mutant D181A; Munc18c knockdown 3T3-L1 cells reconstituted with Y218/219F, transfected with PTP1B D/A, + insulin; read off a plot

| Variant | response (relative to WT) |
| --- | --- |
| chain 1 Y218F Y219F | 0.87 |

Same assay, conditions: with Protein-tyrosine phosphatase 1B substrate-trapping mutant D181A; Munc18c knockdown 3T3-L1 cells reconstituted with Y218/219F, transfected with PTP1B D/A, - insulin; read off a plot

| Variant | response (relative to WT) |
| --- | --- |
| chain 1 Y218F Y219F | 0.4 |

Same assay, conditions: with Protein-tyrosine phosphatase 1B substrate-trapping mutant D181A; Munc18c knockdown 3T3-L1 cells reconstituted with Y521F, transfected with PTP1B D/A, + insulin; read off a plot

| Variant | response (relative to WT) |
| --- | --- |
| chain 1 Y521F | 0.93 |

Same assay, conditions: with Protein-tyrosine phosphatase 1B substrate-trapping mutant D181A; Munc18c knockdown 3T3-L1 cells reconstituted with Y521F, transfected with PTP1B D/A, - insulin; read off a plot

| Variant | response (relative to WT) |
| --- | --- |
| chain 1 Y521F | 0.38 |

Variants of: B2
Assay: as above
Details: with Munc18c (endogenous) [mouse (endogenous in 3T3-L1 and PTP1B KO adipocytes)]; 3T3-L1 WT adipocytes, + insulin + Vanadate; read off a plot

| Variant | response (relative to WT) |
| --- | --- |
| chain 1 D181A | 0.83 |

Same assay, conditions: with Munc18c (endogenous) [mouse (endogenous in 3T3-L1 and PTP1B KO adipocytes)]; 3T3-L1 WT adipocytes, + insulin, NP40 lysis; read off a plot

| Variant | response (relative to WT) |
| --- | --- |
| chain 1 D181A | 2.2 |

Same assay, conditions: with Munc18c (endogenous) [mouse (endogenous in 3T3-L1 and PTP1B KO adipocytes)]; 3T3-L1 WT adipocytes, - insulin, NP40 lysis; read off a plot

| Variant | response (relative to WT) |
| --- | --- |
| chain 1 D181A | 1.4 |
